Source: PMC8131360, “Phospholipid translocation captured in a bifunctional membrane protein MprF” (Nature Communications, 2021)

Molecular target: the molecule itself
Experiment: cryo-EM structure; full-length RtMprF purified in β-DDM or GDN, reconstituted with POPG and MSP1E3D1 (1:2:100) in lipid nanodiscs; 20 mM Tris-HCl pH 7.5, 300 mM NaCl; single-particle analysis, C2 symmetry imposed

B1: Multiple Peptide Resistance Factor from Rhizobium tropici (RtMprF) (natural protein, UniProt A0A6P1C618 1-869, looked up)
chain: MSSPIDLESADEELEERGGIVGLLNRYRALIVAVLTVAVFCIAAYAIYDLTTEVRYDDVVHALTTTKISSVLLALLFTGLSFASLIFYDQNALEYIGKRLPFPHVALTSFSAYAVGNTAGFGALSAGAIRYRAYTRLGLSPDDITRVIAFVTLAFGLGLASVGAMALLVIADEIGPLISVDGLWLRLIAIAILAALAFVVYAGRNGREVRIGPVAVRLPDSRTWSRQFLVTAFDIAASASVLYVLLPETSIGWPGFFAIYAIAVGLGVLSHVPAGFGVFETIIIAWLGSSVNEDAVLSSLVLYRVIYNVIPLVIAIAAISVAELRRFVDHPVASSMRRIGARLMPQLLSAFALLLGMMLVFSSVTPTPDHNLIVLSDYLPLSLVESAHFLSSLLGLAIIVAARGLSQRLDGAWWVSTFSALFALFFSLLKAIAIVEAGLLAFFVFSLVVSRRLFKRPASLLNQTLTAGWLTAIAVVCIGAIVVLFFVYRDVGYSNELWWQFEFADEAPRGLRAALGISIVSSAIAIFSLLRPATKRPEPVSDDAVARAVEIVRKQGVADANLVRMGDKSIMFSEKGDAFIMYGKQGRSWIALFDPVGPRQALPDLIWRFVETARAAGCRSVFYQISPALLSYCADAGLRAFKLGELAVVNLANFELKGGKWANLRQTASRAVRDGLEFAVIEPQDIPDVLDQLAHVSDTWLADHNAKEKSFSLGAFDPDYVCSQPVGVLKKDGKIVAFANILMTETKEEGSVDLMRFSPDAPKGSMDFLFVQILEYLKGEGFQRFNLGMAPLSGMSRRESAPVWDRVGGTVFEHGERFYNFKGLRAFKSKFHPEWQPRYLAVSGGVSPMIALMDATFLIGGGLKGVVRK
notes: MprF (mprF gene) from Rhizobium tropici, full-length protein of 869 amino acid residues; flippase domain (Subdomain 1 Leu24-Arg325, Subdomain 2 Ser334-Arg530) and synthase domain (Pro539-Gly860); also called RtMprF(DDM); RtMprF(GDN); source: E. coli C41(DE3), pET21b; purified (Ni-NTA in β-DDM or GDN) and reconstituted in POPG/MSP1E3D1 nanodiscs (Ni-NTA, SEC); also unpurified, in the E. coli …
  stoichiometry N: 2
